Test results from article PMC3927786 (Chemistry & biology, 2013).

Target: the molecule itself
Assay: SEC

B1: pimeloyl-CoA ligase (BioW) (enzyme, UniProt P53559 1-259, looked up)
chain: MMQEETFYSVRMRASMNGSHEDGGKHISGGERLIPFHEMKHTVNALLEKGLSHSRGKPDFMQIQFEEVHESIKTIQPLPVHTNEVSCPEEGQKLARLLLEKEGVSRDVIEKAYEQIPEWSDVRGAVLFDIHTGKRMDQTKEKGVRVSRMDWPDANFEKWALHSHVPAHSRIKEALALASKVSRHPAVVAELCWSDDPDYITGYVAGKKMGYQRITAMKEYGTEEGCRVFFIDGSNDVNTYIHDLEKQPILIEWEEDHDS
- stoichiometry N: 2
